Results published in patent US20230406948A1.

Tests used:
[1] = target: human CD40 on cells (native CD40 on Ramos cells, human B cells, human monocyte-derived dendritic cells; cell surface CD40) (human) (UniProt P25942); experiment: cell-based or functional assay
[2] = target: human CD40 on cells (native CD40 on Ramos cells, human B cells, human monocyte-derived dendritic cells; cell surface CD40) (human) (UniProt P25942); experiment: FACS on live Ramos cells, goat anti-human IgG (H+L) PE

Sequence of human CD40 on cells (native CD40 on Ramos cells, human B cells, human monocyte-derived dendritic cells; cell surface CD40) (human) (P25942 21-193): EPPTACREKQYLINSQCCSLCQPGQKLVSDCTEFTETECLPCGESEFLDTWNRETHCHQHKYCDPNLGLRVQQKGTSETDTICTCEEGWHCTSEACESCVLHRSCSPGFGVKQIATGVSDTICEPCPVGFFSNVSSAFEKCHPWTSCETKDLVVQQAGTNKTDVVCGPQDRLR

In the case of SGN-40 (antibody), the EC50 (ng/ml), CD40 agonist activity: up-regulation of CD86 on human B cells [1] was 1260 ng/mL and the EC50 [2] was 0.0218 µg/mL.
